The results in this text go back to patent US20130108641A1.

A word on the Kd: it is a measure of binding affinity in units of concentration. By IC50 is commonly meant the midpoint of a concentration-inhibition curve.

The target of assay [1] is human GITR expressed on cells (human) (UniProt Q9Y5U5). Briefly: cell-based or functional assay.
Assay [2] has the same target. Briefly: FACS, Alexa488-labeled antibody on PHA-stimulated human PBMCs.
For assay [3], the target named is human GITR-Fc fusion protein (human) (UniProt Q9Y5U5). The experiment in a line: competition ELISA, GITRL coated, GITR-Fc 0.25 µg/mL pre-incubated with antibody. In general terms: ELISA stands for enzyme-linked immunosorbent assay.
human GITR-Fc fusion protein (human), sequence (Q9Y5U5 26-162): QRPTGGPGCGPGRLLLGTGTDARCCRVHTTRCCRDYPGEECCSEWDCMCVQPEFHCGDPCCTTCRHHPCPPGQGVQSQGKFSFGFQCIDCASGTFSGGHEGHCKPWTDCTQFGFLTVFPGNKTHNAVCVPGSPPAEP

human GITR expressed on cells (human), sequence (Q9Y5U5 26-241): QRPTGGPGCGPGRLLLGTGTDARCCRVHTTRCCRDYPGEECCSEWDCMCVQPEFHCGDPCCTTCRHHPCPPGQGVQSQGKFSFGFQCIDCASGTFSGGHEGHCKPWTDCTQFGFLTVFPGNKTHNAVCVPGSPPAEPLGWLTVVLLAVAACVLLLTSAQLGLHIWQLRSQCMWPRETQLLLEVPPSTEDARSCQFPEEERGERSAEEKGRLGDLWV

Substance “MAB689 (R&D Systems), commercial anti-GITR antibody” had an inhibition of NFkB signal transduction (luciferase reporter) at 300 ng/ml in assay [1] of 18%. For the same substance, the dissociation constant Kd in assay [2] was 1.66 nM. In addition, the IC50 in assay [3] came to 13.9 nM.
